Data on 15 molecules can be found in patent US5780221A, “Identification of enantiomeric ligands” (Whitehead Institute for Biomedical Research, priority 1996, dated 1998).

Square brackets hold non-standard residues; d marks the D form. Ends that are not written are not given here.

Data set [1] addresses T1, L-SH3 domain (Gallus gallus, UniProt P00523).
T1 construct: Residues 81 to 140 of chicken c-SRC were cloned; modified TrpLE leader (Met to Leu, Cys to Ala) (N, cleaved yes); His9 within the C-terminal region of the TrpLE leader (N, cleaved yes); made in house; host or cells: Escherichia coli BL21(DE3) pLysS, plasmid pMMHb-SRC SH3
The data set can be described thus: Screening of the phage library with the L-SH3 domain. Type of data set: binding, chicken. How it is done: Phage display with the L-SH3 domain was also assessed. When the (L)-SH3 domain is used to screen a phage library (A12) for interacting sequences the poly-proline sequences that have been observed by others Rickles, R. J., et al., EMBO J., 13:5598 (1994); Sparks, A. B., J. Biol. Chem., 39:23853 (1994); Cheadle, C., et al., Ibid, 39:24034 (1994) are isolated.
The sequences of these peptides have features consistent with those described for class I and class II ligands of the SH3 domain ((Yu, H., et al., Cell, 76:933 (1994); Rickles, R. J. et al., EMBO J., 13:5598 (1994; Sparks, A. B., et al., J. Biol. Chem., 269:23853 (1994); Cheadle, C., et al., ibid., p. 24034)).

Data set [2] deals with T2, (D)-Src SH3 domain (Gallus gallus, UniProt P00523). Nature of the data set: Screening (selection rounds) of the phage library with the (D)-SH3 domain. Type of data set: binding, chicken. To be noted: for Number of Isolates, low stringency: 4 rounds, 16 hrs phage incubation, washes 3', 5', 10' in rounds 2-4; for isolates after four rounds of selection: 29 clones sequenced after four rounds. From the text:
The all D amino acid SH3 domain, sequence […] S-COOH-terminus (SEQ ID No: 1), residues 81-140 of chicken c-SRC, was synthesized on HMP resin (ABI/Perkin Elmer) with an ABI 431A peptide synthesizer and ABI fastmoc cycles (Fmoc chemistry with HBTU activation and capping with acetic anhydride). Protected D-amino acids were obtained from Bachem California., Bachem Bioscience, Advanced Chemtech, and Novabiochem. For D-Ile and D-Thr, the side chain enantiomers were used, in which the chirality of the side chain is also inverted relative to naturally occurring L-Thr and L-Ile. After completion of the synthesis, the NH2 -terminus of the peptide was modified with NHS-LC-biotin II (Pierce). After cleavage, the peptide was lyophilized, dissolved in 6 M guanidine HCl, pH 6.0, and dialyzed against 100 mM NaHPO4 and 100 mM NaCl, pH 6.0, with the use of dialysis tubing with a molecular cutoff of 3,500 daltons (D) (Spectra/Por). After dialysis the material was spun briefly to remove insoluble debris, and the supernatant was subsequently dialyzed against 5% acetic acid and lyophilized. The peptide was dissolved at a concentration of 3.3 mg/ml in Tris-buffered saline (50 mM Tris, pH 7.5, and 150 mM NaCl) containing 1 mM biotin. The full biotinylated 60 amino acid (D)-SH3 domain length product was refolded and purified by affinity chromatography on an all-(D) version of a known substrate for the Src SH3 domain (D)-[…] (SEQ ID NO:2), Yu, H., et al., Cell, 76:933 (1994)), that was biotinylated and immobilized on a streptavidin-agarose column (Pierce). This peptide is a derivative of an all (L)-peptide shown to bind to the all (L)-SH3 domain (Yu, H., et al., Cell,76:933-945 (1994)), with an NH2 -terminal YGG added to facilitate concentration determination (H. Edelhoch, Biochemistry, 6:1948 (1967)). The L-peptide with the same NH2 -terminal YGG served as a control ligand in the experiments.
Single wells of a flatbottom 96 well high binding E.I.A./R.I.A. plate (Costar) were coated overnight with 10 μg streptavidin (Pierce) in 100 μl 100 mM NaHCO3 at 4° C. After a single wash with water, wells were incubated with 100 μl (10.7 μg) of biotinylated (D)-SH3 for 1 hr. at 20° C., blocked for 2 hrs with 30 mg/ml dialyzed bovine serum albumin (BSA) in 100 mM NaHCO3, and again incubated with 100 μl ([…]) of biotinylated (D)-SH3 for 1 hr. Unliganded streptavidin was blocked for 30 minutes by the addition of 8 μl 5 mM biotin in tris-buffered saline (TBS). Wells were subsequently washed 5 times with phosphate buffered saline (PBS) and 0.1% Tween-20, and incubated overnight with 50 μl of the phage stock in TBS/NaN3 and 50 μl of TBS, 0.1% Tween-20, 1 mg/ml BSA and 0.05% NaN3. Wells were subsequently washed by six additions of 200 μl of TBS, 0.1% Tween-20 and 1 mg/ml BSA with increasing incubation times in the later rounds of the selection procedure. (D)-SH3 bound phage particles were subsequently eluted by the addition of 100 μl D-SH3 ligand peptide (715 μM), sequence D-[…]-amide (SEQ ID No: 2), for 15 minutes at 4° C., at a final concentration of 700 to 1000 μM peptide. Acid elution of phages in this screen gives no detectable preferential binding to D-SH3 coated wells after four rounds of selection. The eluate was subsequently used to infect K91-kan cells. Briefly 100 μl eluate was mixed with 100 μl K91 Terrific Broth cells (prepared as described) an incubated for 20 minutes at room temperature. The mixture was subsequently transferred into an Erlenmeyer flask containing 20 ml LB/0.2 μg/ml tetracycline. After 1 hr incubation while shaking at 37° C., tetracycline was added to a final concentration of 20 μg/ml, appropriate dilutions were plated on tetracycline-containing plates ([…]) to determine the titer of the eluate and the culture was incubated at 37° C. for 12-16 hrs. Phage were isolated from the supernatant by two PEG precipitations and the resulting phage stock was used for titering to determine the yield, and for the subsequent round of selection. […]

The target of data set [3] is T2, (D)-Src SH3 domain. The data set is described as above. Type of data set: binding, chicken. To be noted: for Number of Isolates, high stringency: 4 rounds, 2 fold less (D)-Src SH3, 1 hr phage incubation, washes 10' in rounds 2-4.
Data set [4] concerns the target T1, L-SH3 domain. The data set can be described thus: ELISA and NMR binding check of D-amino acid version of background sequence. Further details: species or system chicken. To be noted: as judged by ELISA and NMR studies. In general terms: An ELISA detects its analyte on a solid surface through an enzyme-linked reagent.
Data set [5] deals with T3, lectin concanavalin A (Con A) (Canavalia ensiformis, UniProt P02866).
T3 construct: mature circularly permuted chain
Nature of the data set: Con A screen of the phage library. The class given is binding. The settings on record: after 3 rounds. How it is done: The library was made by ligation of a random PCR product into Sfi I-cut Fuse 5 vector. After ligation the reaction mixture was extracted with phenol and chloroform, ethanol-precipitated and taken up in 10 mM Tris/1 m mM EDTA (pH 8.0). The ligation product was subsequently transferred into electrocompetent MC1061 cells (Biorad) using a Bio-Rad E. coli pulser and 0.1 cm cuvettes. After non-restrictive growth for 1 hr aliquots of transformed cells were plated on tetracycline-containing plates to determine the efficiency of transformation, yielding an initial library of 3.6×108 transformants. The transformation mixture was subsequently diluted to a volume of 400 ml LB and 20 μg/ml tetracycline, and grown for an additional 14 hrs. A phage stock was prepared by two successive polyethylene glycol (PEG) precipitations of the culture supernatant as described. The phage stock was finally resuspended in tris buffered saline/NaN3 and titered by infection of K91-kan cells (A21), yielding a total of 2.8×10^11 transforming units. The randomness of the inserts was confirmed by sequencing of individual clones. 4×10^10 transforming units were subsequently used to infect K91-kan cells to generate an amplified library. After 18 hrs phage were purified by three repetitive PEG precipitations yielding 10 ml of the amplified phage library (1.2-10^12 transforming units/ml) in TBS/NaN3. […]

The next data set concerns the target T4, (L)-SH3 (Gallus gallus, UniProt P00523).
T4 construct: E. coli BL21(DE3) pLysS, pMMHb TrpLE-His9 fusion, cleaved with CNBr
Nature of the data set: Retention of bacterially expressed (L)-SH3 on peptide affinity column. The class given is binding. The settings on record: residues 81-140 of chicken c-Src. As for the experimental part:
The L- and D-enantiomers of the chicken c-SRC domain were prepared by bacterial expression and chemical synthesis, respectively. The biotinylated, synthetic, 60-amino acid D-SH3 domain was refolded and purified by affinity chromatography, with a D-amino acid version of a known peptide ligand for the SH3 domain (Yu, H., et al., Cell, 76:933 (1994)).
The all D amino acid SH3 domain, sequence […] S-COOH-terminus (SEQ ID No: 1), residues 81-140 of chicken c-SRC, was synthesized on HMP resin (ABI/Perkin Elmer) with an ABI 431A peptide synthesizer and ABI fastmoc cycles (Fmoc chemistry with HBTU activation and capping with acetic anhydride). Protected D-amino acids were obtained from Bachem California., Bachem Bioscience, Advanced Chemtech, and Novabiochem. For D-Ile and D-Thr, the side chain enantiomers were used, in which the chirality of the side chain is also inverted relative to naturally occurring L-Thr and L-Ile. After completion of the synthesis, the NH2 -terminus of the peptide was modified with NHS-LC-biotin II (Pierce). After cleavage, the peptide was lyophilized, dissolved in 6 M guanidine HCl, pH 6.0, and dialyzed against 100 mM NaHPO4 and 100 mM NaCl, pH 6.0, with the use of dialysis tubing with a molecular cutoff of 3,500 daltons (D) (Spectra/Por). […]

Data set [6] deals with synthetic D-vasopressin (DVP). Nature of the data set: Affinity chromatography on D-vasopressin (DVP) resin, in vitro selection of ssDNAs. Type of data set: binding. The settings on record: for binding to DVP: affinity chromatography, positive ssDNA. From the text: In the first step toward generating an antagonist of the peptide hormone L-vasopressin, an in vitro selection was used to isolate single-stranded DNAs (ssDNAs) that bind synthetic D-vasopressin (DVP). A starting pool of 10^16 different 96-mers was synthesized on a DNA synthesizer. Each pool molecule contained a central region with 60 random-sequence positions that was flanked by two 18-nt defined regions. Molecules within this starting pool that bind DVP were enriched by affinity chromatography. The affinity resin was prepared by coupling biotinylated DVP to streptavidin agarose. The ssDNA pool was radiolabeled, denatured, renatured in a physiological buffer and passed over this resin. […] Eluted pool was amplified by PCR using a negative-strand "primer-terminator", that is, an oligonucleotide bearing a central segment of non-nucleotide material that blocks further extension of the positive strand (Williams, K. P. and Bartel, D. P., Nucleic Acids Res., 23:4220-4221 (1995)). Such PCR results in a substantial size difference between the two product strands, facilitating gel-purification of the positivestrand ssDNA pool. This combination of affinity chromatography and PCR constituted one cycle of selection amplification.
After thirteen iterations of the selectionamplification cycle the pool was cloned. […] Positive ssDNA of each sequence binds DVP and both have potential to form very similar secondary structures.

Consider CLARSRLPAIPS, for which the “isolates after four rounds of selection with the L-SH3 domain” value with L-SH3 domain [1] is “nine”. As for CWYLGYWPGQEC, in the data set with (D)-Src SH3 domain [2], the “Number of Isolates, low stringency” value is 12 and the “isolates after four rounds of selection” value is given as 12 isolates. As for CSRASWRGLLFC, the “Number of Isolates, high stringency” value with (D)-Src SH3 domain [3] is reported as 1.

As to “CAYGFKLGLIKC [clone has alanine to arginine substitution directly amino terminal to the insert]”, the “Number of Isolates, low stringency” value on (D)-Src SH3 domain [2] is listed as 1. With CKRFVWRGQALC, in the data set with (D)-Src SH3 domain [2], the “Number of Isolates, low stringency” value came to 10 and the “isolates after four rounds of selection” value is listed as 10 isolates. Moreover, the “Number of Isolates, high stringency” value in the data set with (D)-Src SH3 domain [3] turned out to be 14.

CLMGLRLGLLPC: the “Number of Isolates, low stringency” value in the data set with (D)-Src SH3 domain [2] worked out at 4. Moreover, the “sequences revealed after fifth round of selection” value with (D)-Src SH3 domain [3] (fifth round with neutravidin as a matrix) was “only sequences of the fdSRC-2-type”.

In the case of SRMSPLVPLRNS, the “isolates after four rounds of selection with the L-SH3 domain” value with L-SH3 domain [1] is given as “one”.

Take CLSGLRLGLVPC: the “Number of Isolates, low stringency” value with (D)-Src SH3 domain [2] was found to be 2. For “D-amino acid version of this sequence: D-amino acid version of CKRFVWRGQALC (SEQ ID No: 13) ([dC][dK][dR][dF][dV][dW][dR]G[dQ][dA][dL][dC]; cysteine pairing not given here)”, the “binding to the L-SH3 domain” value with L-SH3 domain [4] is on record as “fails to bind to the L-SH3 domain”. Consider “AS W R Y N Y A F M R Y SA (ASWRYNYAFMRYSA)”, for which, in data set [5], the “number in parentheses after sequence, Con A screen” value was 1. Same read-out and setting: the result for “AS M W M Y P Y P W G V SA (ASMWMYPYPWGVSA)” reads 9.

In the case of “(D)-YGGRELPPLPRF ([dY]GG[dR][dE][dL][dP][dP][dL][dP][dR][dF]; also: biotinylated, site not given here) [all-(D) version of a known substrate for the Src SH3 domain]”, the “retention of bacterially expressed (L)-SH3 on peptide column” value with (L)-SH3 is “not on the (D)-enantiomer”.

B1: 69.1: D-vasopressin aptamer, deletion derivative of 96.4 (nucleic acid)
chain: TCTAACGTGAATGATAGACGTTACGTGTCTACACTATGTCGAGTTGCTGTGTGCCGATGAACGTGGGAT
modifications: chemistry not given here
Take B1: the “elution from the DVP resin by L-vasopressin” value in data set [6] (DVP resin, L-vasopressin) is listed as “not eluted from the DVP resin by L-vasopressin”. The “binding to DVP” value in data set [6] is on record as “appears to bind DVP better than does the parent sequence”.

B2: 96.4: D-vasopressin aptamer, ssDNA 96-mer (nucleic acid)
chain: TCTAACGTGAATGATAGACGTTACGTGTCTACACTATGTCGAGTTGCTGTGTGCCGATGAACGTGGGATTAGAGCGTGTTAACTTATTCGACCAAA
modifications: DNA, backbone not given here
notes: D-vasopressin aptamer, ssDNA 96-mer
In the case of B2, the “binding to DVP” value in data set [6] is “binds DVP”.

B3: 96.2: D-vasopressin aptamer, ssDNA 96-mer (nucleic acid)
chain: TCTAACGTGAATGATAGACGGCGAATCCCCAATGCGAAGCAGTGGTTTTGCAGTCGAGTTGCTGTGTGCCGATGAGCGTTAACTTATTCGACCAAA
modifications: DNA, backbone not given here
notes: as for B2
On to B3, for which, in data set [6], the “binding to DVP” value is on record as “binds DVP”.
